To fix the notation:
B1: Azoarcus group I ribozyme (parent)
chain: GUGCCUUGCGCCGGGAAACCACGCAAGGGAUGGUGUCAAAUUCGGCGAAACCUAAGCGCCCGCCCGGGCGUAUGGCAACGCCGAGCCAAGCUUCGGCGCCUGCGCCGAUGAAGGUGUAGAGACUAGACGGCACCCACCUAAGGCAAACGCUAUGGUGAAGGCAUAGUCCAGGGAGUGGCGAAAGUCACACAAACCGG

Variants of B1 are the subject of the data set. Briefly: reverse-splicing fitness (ratio to wild type); higher = more active; in vitro selection; Mg2+ level not given. The gist of the method: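 An in vitro group I ribozyme library with randomized positions was T7-transcribed and gel-purified. In triplicate, 10 pmol RNA in EPPS pH 7.5 was reacted with 50 pmoles of a 30-nt RNA substrate for 1 h at 37 °C across several added MgCl2 levels (1–48 mM), then stopped with EDTA. Products were reverse transcribed from a substrate-complementary primer, PCR-amplified and sequenced (HiSeq 4000). Fitness is a variant's read proportion after selection over that before, normalised to wild type.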
With GUGCCUUGCGCCGGGAAACCACGCAAGGGAUGGUGUCAAAUUCGGCGAAACCUAAGCGCCCGCCCGGGCGUAUGGCAACGCCGAGCCAAGCUUCGGCGCCUGCGCCGAUGGAGGUGUAGUGACUAGACGGCACCCACCUAAGGCAAACGGUAUGGUGAAGGCAUAGUCCAGGGAGCGGCGAAAGUCACACAAACCGG [A111G A120U C150G U176C], the reverse-splicing fitness stood at 0.0248. As to GUGCCUUGCGCCGGGAAACCACGCAAGGGAUGGUGUCAAAUUCGGCGAAACCUAAGCGCCCGCCCGGGCGUAUGGCAACGCGGAGCCAAGCUUCGGCGCCUGCGCCGAUGAAGGUGUAGGGACUAGACGGCACCCACCUAAGGCUAACGAUAUGGUGAAGGCAUAGUCGAGGGAGCGGCGAAAGUCACACAAACCGG [C82G A120G A145U C150A C169G U176C], the reverse-splicing fitness stood at 0.0157. The same measure for GUGCCUUGCGCCGGGAAACCACGCAAGGGAUGGUGUCAAAUUCGGCGAAACCUAAGCGCCCGCCCGGGCGUAUGGCAACGCAGAGCCAAGCUUCGGCGCCUGCGCCGAUGAAGGUGUAGUGACUAGACGGCACCCACCUAAGGCCAACGCUAUGGUGAAGGCAUAGUCAAGGGAGGGGCGAAAGUCACACAAACCGG [C82A A120U A145C C169A U176G]: 0.00126; for GUGCCUUGCGCCGGGAAACCACGCAAGGGAUGGUGUCAAAUUCGGCGAAACCUAAGCGCCCGCCCGGGCGUAUGGCAACGCAGAGCCAAGCUUCGGCGCCUGCGCCGAUGAAGGUGUAGCGACUAGACGGCACCCACCUAAGGCUAACGAUAUGGUGAAGGCAUAGUCAAGGGAGAGGCGAAAGUCACACAAACCGG [C82A A120C A145U C150A C169A U176A]: 0.0198.

GUGCCUUGCGCCGGGAAACCACGCAAGGGAUGGUGUCAAAUUCGGCGAAACCUAAGCGCCCGCCCGGGCGUAUGGCAACGCAGAGCCAAGCUUCGGCGCCUGCGCCGAUGGAGGUGUAGCGACUAGACGGCACCCACCUAAGGCUAACGGUAUGGUGAAGGCAUAGUCGAGGGAGGGGCGAAAGUCACACAAACCGG [C82A A111G A120C A145U C150G C169G U176G]: the reverse-splicing fitness turned out to be 0.00589.

Consider GUGCCUUGCGCCGGGAAACCACGCAAGGGAUGGUGUCAAAUUCGGCGAAACCUAAGCGCCCGCCCGGGCGUAUGGCAACGCUGAGCCAAGCUUCGGCGCCUGCGCCGAUGAAGGUGUAGAGACUAGACGGCACCCACCUAAGGCUAACGGUAUGGUGAAGGCAUAGUCCAGGGAGCGGCGAAAGUCACACAAACCGG [C82U A145U C150G U176C], for which the reverse-splicing fitness worked out at 0.0567. GUGCCUUGCGCCGGGAAACCACGCAAGGGAUGGUGUCAAAUUCGGCGAAACCUAAGCGCCCGCCCGGGCGUAUGGCAACGCAGAGCCAAGCUUCGGCGCCUGCGCCGAUGAAGGUGUAGAGACUAGACGGCACCCACCUAAGGCCAACGCUAUGGUGAAGGCAUAGUCUAGGGAGAGGCGAAAGUCACACAAACCGG [C82A A145C C169U U176A]: the reverse-splicing fitness is 0.0128. Consider GUGCCUUGCGCCGGGAAACCACGCAAGGGAUGGUGUCAAAUUCGGCGAAACCUAAGCGCCCGCCCGGGCGUAUGGCAACGCGGAGCCAAGCUUCGGCGCCUGCGCCGAUGUAGGUGUAGUGACUAGACGGCACCCACCUAAGGCGAACGCUAUGGUGAAGGCAUAGUCCAGGGAGCGGCGAAAGUCACACAAACCGG [C82G A111U A120U A145G U176C], for which the reverse-splicing fitness came out at 0.0173.

In the case of GUGCCUUGCGCCGGGAAACCACGCAAGGGAUGGUGUCAAAUUCGGCGAAACCUAAGCGCCCGCCCGGGCGUAUGGCAACGCUGAGCCAAGCUUCGGCGCCUGCGCCGAUGCAGGUGUAGGGACUAGACGGCACCCACCUAAGGCCAACGCUAUGGUGAAGGCAUAGUCGAGGGAGCGGCGAAAGUCACACAAACCGG [C82U A111C A120G A145C C169G U176C], the reverse-splicing fitness came to 0.0122. With GUGCCUUGCGCCGGGAAACCACGCAAGGGAUGGUGUCAAAUUCGGCGAAACCUAAGCGCCCGCCCGGGCGUAUGGCAACGCGGAGCCAAGCUUCGGCGCCUGCGCCGAUGUAGGUGUAGAGACUAGACGGCACCCACCUAAGGCUAACGAUAUGGUGAAGGCAUAGUCGAGGGAGCGGCGAAAGUCACACAAACCGG [C82G A111U A145U C150A C169G U176C] the figure was 0.0144; with GUGCCUUGCGCCGGGAAACCACGCAAGGGAUGGUGUCAAAUUCGGCGAAACCUAAGCGCCCGCCCGGGCGUAUGGCAACGCUGAGCCAAGCUUCGGCGCCUGCGCCGAUGAAGGUGUAGUGACUAGACGGCACCCACCUAAGGCCAACGCUAUGGUGAAGGCAUAGUCAAGGGAGAGGCGAAAGUCACACAAACCGG [C82U A120U A145C C169A U176A], 0.00163. With GUGCCUUGCGCCGGGAAACCACGCAAGGGAUGGUGUCAAAUUCGGCGAAACCUAAGCGCCCGCCCGGGCGUAUGGCAACGCUGAGCCAAGCUUCGGCGCCUGCGCCGAUGAAGGUGUAGCGACUAGACGGCACCCACCUAAGGCCAACGCUAUGGUGAAGGCAUAGUCUAGGGAGCGGCGAAAGUCACACAAACCGG [C82U A120C A145C C169U U176C], the reverse-splicing fitness is 0.0127. GUGCCUUGCGCCGGGAAACCACGCAAGGGAUGGUGUCAAAUUCGGCGAAACCUAAGCGCCCGCCCGGGCGUAUGGCAACGCUGAGCCAAGCUUCGGCGCCUGCGCCGAUGGAGGUGUAGCGACUAGACGGCACCCACCUAAGGCAAACGUUAUGGUGAAGGCAUAGUCUAGGGAGGGGCGAAAGUCACACAAACCGG [C82U A111G A120C C150U C169U U176G]: the reverse-splicing fitness came out at 0.0054. As for GUGCCUUGCGCCGGGAAACCACGCAAGGGAUGGUGUCAAAUUCGGCGAAACCUAAGCGCCCGCCCGGGCGUAUGGCAACGCGGAGCCAAGCUUCGGCGCCUGCGCCGAUGGAGGUGUAGAGACUAGACGGCACCCACCUAAGGCCAACGUUAUGGUGAAGGCAUAGUCAAGGGAGGGGCGAAAGUCACACAAACCGG [C82G A111G A145C C150U C169A U176G], the reverse-splicing fitness came to 0.00694. With GUGCCUUGCGCCGGGAAACCACGCAAGGGAUGGUGUCAAAUUCGGCGAAACCUAAGCGCCCGCCCGGGCGUAUGGCAACGCGGAGCCAAGCUUCGGCGCCUGCGCCGAUGGAGGUGUAGAGACUAGACGGCACCCACCUAAGGCAAACGUUAUGGUGAAGGCAUAGUCAAGGGAGGGGCGAAAGUCACACAAACCGG [C82G A111G C150U C169A U176G] the figure was 0.00685.

For the origin of these results see the RNAGym collection of RNA variant scans (doi:10.1093/molbev/msab373).
